Reference: article PMC5397419

Biological target: T1, DnaA wild-type (Escherichia coli) (UniProt P03004)
T1 sequence: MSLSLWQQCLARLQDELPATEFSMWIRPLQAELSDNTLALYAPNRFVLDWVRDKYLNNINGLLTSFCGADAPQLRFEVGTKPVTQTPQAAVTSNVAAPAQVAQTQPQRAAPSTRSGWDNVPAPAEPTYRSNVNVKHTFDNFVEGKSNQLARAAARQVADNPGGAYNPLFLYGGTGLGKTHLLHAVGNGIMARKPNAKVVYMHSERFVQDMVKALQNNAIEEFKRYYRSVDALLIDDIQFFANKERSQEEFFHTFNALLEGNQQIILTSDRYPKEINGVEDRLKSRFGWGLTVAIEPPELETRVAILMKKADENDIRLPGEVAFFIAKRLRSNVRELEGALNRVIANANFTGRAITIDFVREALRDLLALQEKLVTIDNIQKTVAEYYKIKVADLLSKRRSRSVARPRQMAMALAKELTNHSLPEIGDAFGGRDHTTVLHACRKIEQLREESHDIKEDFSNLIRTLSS
Experiment: EMSA
Settings: EMSA oriC/PdnaA: 20 mM HEPES-KOH pH 8.0, 5 mM Mg acetate, 1 mM EDTA, 4 mM DTT, 0.2% Triton X-100, 5% glycerol, 0.5 mg/ml BSA, 2 mM ATP, 20 C; DARS1: 20 mM …

Question: How did the binding turn out when “GGGGATAGGGGCTGGAGACAGTTATCCACTATTCCTGTGGATAACCATGTGTATTAGAGTTAGAAAACACGAGGCAAGCGAGAGAATACGCGGCTTGCACG (double strand) [DARS1]” was run?
Answer: binds
